Assay results reported in doi:10.1101/2024.03.17.585388.

Molecular target: NTD_GS_CTD (NP NTD and CTD joined by a 14 residue artificial linker, no tails) (SARS-CoV-2)
Assay: […]

For “NTD_GS_CTD (NP NTD and CTD joined by a 14 residue artificial linker, no tails) (domain or fragment)”, the stoichiometry N was 2.
